PMC8442604

Tests used:
[1] = target: SARS-CoV-2 RBD protein (321–591) (SARS-CoV-2) (UniProt P0DTC2)
[2] = target: SARS-CoV-2 RBD protein (321–591) (SARS-CoV-2) (UniProt P0DTC2); test: SPR

- other [1]: 37.5 µg/mL
- Kd [2]: 810 pM
Substance: P2B-2F6 (antibody)
